Molecular target: voltage-dependent anion channel (VDAC) (rat (endogenous in rat cortex)) (UniProt Q9Z2L0)
Assay: co-IP

Chain of UniProt Q9Z2L0 (Q9Z2L0 whole entry): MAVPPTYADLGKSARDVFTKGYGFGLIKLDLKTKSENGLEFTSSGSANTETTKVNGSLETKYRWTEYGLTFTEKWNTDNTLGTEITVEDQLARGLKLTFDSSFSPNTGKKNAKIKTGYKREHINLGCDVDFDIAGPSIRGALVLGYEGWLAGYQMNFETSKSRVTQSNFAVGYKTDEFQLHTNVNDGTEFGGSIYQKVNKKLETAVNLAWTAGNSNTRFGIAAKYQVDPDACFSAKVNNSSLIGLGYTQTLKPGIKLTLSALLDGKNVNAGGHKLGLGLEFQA

percent reduction of HK1-VDAC binding at 100 µM peptide (lower VDAC band, VDAC3): 66.1%
percent reduction of HK1-VDAC binding at 100 µM peptide (total VDAC): 50.4%
Substance: Hexokinase II VDAC binding domain peptide (fused to Antennapedia homeo-domain)
